The text below walks through data of article PMC11765882, “A High-Resolution Crystallographic Study of Cytochrome c6: Structural Basis for Electron Transfer in Cyanobacterial Photosynthesis” (International Journal of Molecular Sciences, 2025).

In general, stoichiometry N refers to the number of molecules, sites or subunits per partner or assembly.

The data set concerns the molecule itself. Kind of data set: native gel or EMSA; blue native PAGE (4-13%) of the purified protein; dimer and monomer.

B1: Cytochrome c6 from Synechocystis sp. PCC 6803 (natural protein)
chain: ADLAHGKAIFAGNCAACHNGGLNAINPSKTLKMADLEANGKNSVAAIVAQITNGNGAMPGFKGRISDSDMEDVAAYVLDQAEKGW
modifications: heme covalently linked to two cysteine residues via thioether bonds (CXXCH motif); iron axially coordinated by methionine and histidine
notes: Cytochrome c6, Synechocystis sp; cloned into pET22b with an N-terminal pelB signal peptide; Crystallised only in the reduced form (3 mM beta-mercaptoethanol); The printed residue numbers and the MALDI-TOF mass (9449.297 with heme) fit the mature protein without the native signal peptide
Turning to B1, the “stoichiometry N” value came out at 2.

B2: Cytochrome c6 from Synechococcus elongatus sp. PCC 7942 (natural protein, Synechococcus elongatus PCC 7942)
chain: ADLAHGGQVFSANCAACHLGGRNVVNPAKTLQKADLDQYGMASIEAITTQVTNGKGAMPAFGSKLSADDIADVASYVLDQSEKGWQG
modifications: heme covalently linked to two cysteine residues via thioether bonds (CXXCH motif); iron axially coordinated by methionine and histidine
notes: cloned into pET22b with an N-terminal pelB signal peptide; Used reduced (3 mM beta-mercaptoethanol) and oxidised (40-fold molar excess of potassium ferricyanide); The printed residue numbers (Asp2, His5, Ala16) and the MALDI-TOF mass (9714.504 with heme) fit the mature protein without the native signal peptide
Regarding B2, the “stoichiometry N” value came to 2.
